The chains are these.
B2: FKB-6 (full-length) (natural protein, C. elegans, UniProt O45418 1-431, looked up)
chain: MSGEKIDITPKKDGGVLKLIKKEGQGVVKPTTGTTVKVHYVGTLENGTKFDSSRDRGDQFSFNLGRGNVIKGWDLGVATMTKGEVAEFTIRSDYGYGDAGSPPKIPGGATLIFEVELFEWSAEDISPDRDGTILRTIIVEGSKNSFPNDTSKVLAHCVGTYQGTEFYNREVNFHIGEGSEEGLPEGVERALRRFQLGEKSKIEIRGHKYTYGNSPPAGSNIPVNATLEFTIFLKEFEKVPATWEMTAEEKLDAAKQAKDRGTMYLQKGNLKLAYNKYKRAEEVLEYEKSTDPEKMAERETILNGAYLNLSLVCSKQNEQLECIKWCDKVLETKPGNVKALYRKATALLTMNEVRDAMKLFEKIVEVEPENKAAAQQIIVCRNTIREQNERDKKRFKNLFAKISTEEDKPTNTVEDEDEIVASTSGSSTSNA
notes: FKB-6, C. elegans large PPIase, homolog of human Fkbp51/Fkbp52; also called large PPIase FKB-6; source: E. coli BL21 (DE3) cod+, purified (HisTrap, gel filtration)

For one assay, the target named is T1, nematode HSP-90 (C. elegans, UniProt Q18688 1-702).
T1 construct: HSP-90, C. elegans (nematode) Hsp90; also called HSP-90 dimer; source: E. coli BL21 (DE3) cod+, purified (HisTrap, gel filtration)
Kind of assay: native MS; LILBID-MS of the BS3-crosslinked sample and of non-crosslinked mixtures, sB-Raf:CDC-37:FKB-6:HSP-90 = 1:1:1:1 or as indicated; 25 mM Tris, 20 mM KCl, pH 7.5. The following applies: both partners purified.

The assay “FKB-6 (full-length)” concerns the target B2. The description is as above. Conditions: both partners purified.

B1: nematode CDC-37 (natural protein, C. elegans, UniProt O02108 1-370, looked up)
chain: MPIDYSKWKDIEVSDDEDDTHPNIDTPSLFRWRHQARLERMAEKKMEQEKIDKEKGTTSKKMEELEKKLAAADVTDKSDIQKQIDEVKAQEEAWRKKEAELEEKERLEPWNVDTIGHEAFSTSRINKITEKKPQAPKTDEEDTHAMSTFFETHESLLEKMAVLKNGAKSTELFLAEHPHMASEYTANWLTIEALNAAIDFNEEKMKTMAEQCIIIQYLLELSKSLNAVATNTTVQKQFFKKFEAAEPVYMKHYQDEVKAFEDRLRTRAQTKRDAAMEEAEAEEKAERMKSAPGGIDPQEVFEQLPEEMRKCFEAHDIEALKGVAQKMDEEVFKYHFDRCIASGLWVPGKADDDDDDEEAAPAEEEPTTSS
notes: CDC-37, C. elegans (nematode) Hsp90 cochaperone; source: E. coli BL21 (DE3) cod+, purified (HisTrap, gel filtration)
For B1, the binding result with nematode HSP-90 and with FKB-6 (full-length) was “binds” each time.

As to B2, the binding result with nematode HSP-90 is listed as “binds”.

For the origin of these results see publication PMC8196007, “HSP-90/kinase complexes are stabilized by the large PPIase FKB-6” (Scientific Reports, 2021).
